Data set [1] deals with the molecule itself. The data set is described as follows: negative stain EM of purified protein (self-assembly).
Data set [2] deals with the molecule itself. In words: formaldehyde crosslinking in situ in HEK293 cells, western blot. In general terms: Immunoblotting shows a protein as a band on a membrane.
Method: Western blot samples were mixed with 4× Laemlli buffer (40% glycerol, 250 mM Tris, 4% SDS, 50 mM DTT, pH 6.8) and heated at 70° C. for 5 min. SDS-PAGE gel electrophoresis was used to separate protein samples. Separated samples were transferred to a nitrocellulose membrane (GE Healthcare). Following transfer, membranes were briefly stained with 0.1% Ponceau stain, then destained with 1% acetic acid to remove background, for imaging of total protein. […] Membranes were washed 3×10 min in 1×TBS, then incubated in an HRP-conjugated secondary antibody (Jackson ImmunoResearch) in block for 1 h at RT. After 3×10 min in 1×TBS, a chemiluminescent kit (Bio-Rad, Hercules, Calif.) was used to detect the protein bands, and the membranes were imaged on an Azure c300 gel dock (Azure Biosystems, Dublin, Calif.). Blots were analyzed and quantified using the Gel Analysis plugin in ImageJ.
Media was removed and pelleted cells were then crosslinked with 0.4% formaldehyde in PBS for 10 min with rocking at RT. Cell suspensions were immediately quenched with Tris to a final concentration of 50 mM and repelleted. […] Lysates were cleared by centrifugation at 21,000×g for 10 min at 4° C. and cleared supernatants were then run on a 4%-8% gradient gel and analyzed via western blot with antibodies for Arc (mouse monoclonal, Santa Cruz) and GFP (chicken polyclonal, Ayes).

B1: Drosophila Arc homolog dArc1 (Drosophila Arc1, NP_610955.1) (other, UniProt Q7K1U0 1-254, looked up)
chain: MAQLTQMTNEQLRELIEAVRAAAVGAAGSAAAAGGADASRGKGNFSACTHSFGGTRDHDVVEEFIGNIETYKDVEGISDENALKGISLLFYGMASTWWQGVRKEATTWKEAIALIREHFSPTKPAYQIYMEFFQNKQDDHDPIDTFVIQKRALLAQLPSGRHDEETELDLLFGLLNIKYRKHISRHSVHTFKDLLEQGRIIEHNNQEDEEQLATAKNTRGSKRTTRCTYCSFRGHTFDNCRKRQKDRQEEQHEE
With B1, in data set [1], the binding result is “binds”.

B2: myc-Arc-WT (full-length rat WT Arc expressed in HEK293 cells) (other)
chain: MELDHMTTGGLHAYPAPRGGPAAKPNVILQIGKCRAEMLEHVRRTHRHLLTEVSKQVERELKGLHRSVGKLENNLDGYVPTGDSQRWKKSIKACLCRCQETIANLERWVKREMHVWREVFYRLERWADRLESMGGKYPVGSEPARHTVSVGVGGPEPYCQEADGYDYTVSPYAITPPPAAGELPEQESVGAQQYQSWVPGEDGQPSPGLDTQIFEDPREFLSHLEEYLRQVGGSEEYWLSQIQNHMNGPAKKWWEFKQGSVKNWVEFKKEFLQYSEGTLSREAIQRELDLPQKQGEPLDQFLWRKRDLYQTLYVDAEEEEIIQYVVGTLQPKFKRFLRHPLPKTLEQLIQRGMEVQDGLEQAAEPSVTPLPTEDETEALTPALTSESVASDRTQPE
notes: Crosslinked in situ inside transfected HEK293 cells with formaldehyde; also called WT myc-Arc; not shown: myc tag of pRK5-myc-Arc
Turning to B2, the binding result in data set [2] was “binds”.

The record behind these values is patent US20210189432A1 (UNIVERSITY OF UTAH RESEARCH FOUNDATION, published 2021).
